Test results from patent publication US20100129369A1.

Legend:
[1] = target: human c-Met (human) (UniProt P08581); test: cell-based or functional assay
[2] = target: human c-Met ECD-Fc-Flis (human); test: HGF-blocking ELISA: HGF signal on coated c-Met ECD-Fc-Flis; Ab 122.07 ng/mL
[3] = target: human c-Met ECD-Fc-Flis (human); test: HGF-blocking ELISA: HGF signal on coated c-Met ECD-Fc-Flis; Ab 7.63 ng/mL
[4] = target: human c-Met ECD-Fc-Flis (human); test: HGF-blocking ELISA: HGF signal on coated c-Met ECD-Fc-Flis; Ab 488.28 ng/mL
[5] = target: human c-Met ECD-Fc-Flis (human); test: HGF-blocking ELISA: HGF signal on coated c-Met ECD-Fc-Flis; Ab 0.00 ng/mL (HGF only)
[6] = target: human c-Met ECD-Fc-Flis (human); test: HGF-blocking ELISA: HGF signal on coated c-Met ECD-Fc-Flis; Ab 1.91 ng/mL
[7] = target: human c-Met ECD-Fc-Flis (human); test: HGF-blocking ELISA: HGF signal on coated c-Met ECD-Fc-Flis; Ab 31250.00 ng/mL
[8] = target: human c-Met ECD-Fc-Flis (human); test: HGF-blocking ELISA: HGF signal on coated c-Met ECD-Fc-Flis; Ab 1953.13 ng/mL
[9] = target: human c-Met ECD-Fc-Flis (human); test: HGF-blocking ELISA: HGF signal on coated c-Met ECD-Fc-Flis; Ab 125000.00 ng/mL
[10] = target: human c-Met ECD-Fc-Flis (human); test: HGF-blocking ELISA: HGF signal on coated c-Met ECD-Fc-Flis; Ab 30.52 ng/mL
[11] = target: human c-Met ECD-Fc-Flis (human); test: HGF-blocking ELISA: HGF signal on coated c-Met ECD-Fc-Flis; Ab 7812.50 ng/mL
[12] = target: human c-Met ECD-Fc-Flis (human); test: HGF-blocking ELISA: HGF signal on coated c-Met ECD-Fc-Flis; Ab 0.48 ng/mL

Chain of human c-Met (human) (P08581 25-1390): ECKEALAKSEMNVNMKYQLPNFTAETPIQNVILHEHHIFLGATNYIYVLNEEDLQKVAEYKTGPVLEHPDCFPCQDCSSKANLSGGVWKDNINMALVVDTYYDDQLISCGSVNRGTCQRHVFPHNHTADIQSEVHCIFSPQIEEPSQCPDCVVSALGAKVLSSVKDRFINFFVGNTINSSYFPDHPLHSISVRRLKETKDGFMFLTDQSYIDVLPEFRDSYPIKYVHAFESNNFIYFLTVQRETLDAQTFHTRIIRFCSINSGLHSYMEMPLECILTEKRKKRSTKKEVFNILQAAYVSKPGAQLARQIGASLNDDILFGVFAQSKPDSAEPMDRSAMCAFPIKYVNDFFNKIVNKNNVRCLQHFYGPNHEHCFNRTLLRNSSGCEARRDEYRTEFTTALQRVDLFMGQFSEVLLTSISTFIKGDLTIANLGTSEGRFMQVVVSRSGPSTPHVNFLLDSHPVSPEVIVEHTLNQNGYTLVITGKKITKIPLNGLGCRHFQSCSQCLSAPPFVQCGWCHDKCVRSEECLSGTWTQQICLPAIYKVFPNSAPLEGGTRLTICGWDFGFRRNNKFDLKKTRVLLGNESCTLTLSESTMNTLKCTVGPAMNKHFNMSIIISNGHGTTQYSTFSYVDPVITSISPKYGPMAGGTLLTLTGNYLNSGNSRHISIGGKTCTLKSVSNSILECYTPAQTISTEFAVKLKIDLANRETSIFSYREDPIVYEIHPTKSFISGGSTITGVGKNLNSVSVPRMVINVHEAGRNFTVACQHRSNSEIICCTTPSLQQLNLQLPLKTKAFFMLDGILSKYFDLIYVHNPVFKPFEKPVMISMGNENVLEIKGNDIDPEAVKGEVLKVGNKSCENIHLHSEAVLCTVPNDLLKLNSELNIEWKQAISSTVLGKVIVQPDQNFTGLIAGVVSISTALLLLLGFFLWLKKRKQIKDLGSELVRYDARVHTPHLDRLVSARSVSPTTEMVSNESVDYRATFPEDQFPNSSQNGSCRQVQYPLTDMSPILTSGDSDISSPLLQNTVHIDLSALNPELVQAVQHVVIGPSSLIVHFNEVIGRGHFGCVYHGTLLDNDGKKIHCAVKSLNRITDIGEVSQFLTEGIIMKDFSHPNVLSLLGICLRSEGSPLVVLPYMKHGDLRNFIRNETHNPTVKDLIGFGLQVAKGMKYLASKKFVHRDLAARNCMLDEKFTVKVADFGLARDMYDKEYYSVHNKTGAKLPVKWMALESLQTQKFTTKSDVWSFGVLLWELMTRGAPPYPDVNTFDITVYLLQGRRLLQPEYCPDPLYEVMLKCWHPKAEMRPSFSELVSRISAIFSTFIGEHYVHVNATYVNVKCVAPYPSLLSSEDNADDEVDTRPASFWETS
Chain of human c-Met ECD-Fc-Flis (human) (chain, as listed by the source): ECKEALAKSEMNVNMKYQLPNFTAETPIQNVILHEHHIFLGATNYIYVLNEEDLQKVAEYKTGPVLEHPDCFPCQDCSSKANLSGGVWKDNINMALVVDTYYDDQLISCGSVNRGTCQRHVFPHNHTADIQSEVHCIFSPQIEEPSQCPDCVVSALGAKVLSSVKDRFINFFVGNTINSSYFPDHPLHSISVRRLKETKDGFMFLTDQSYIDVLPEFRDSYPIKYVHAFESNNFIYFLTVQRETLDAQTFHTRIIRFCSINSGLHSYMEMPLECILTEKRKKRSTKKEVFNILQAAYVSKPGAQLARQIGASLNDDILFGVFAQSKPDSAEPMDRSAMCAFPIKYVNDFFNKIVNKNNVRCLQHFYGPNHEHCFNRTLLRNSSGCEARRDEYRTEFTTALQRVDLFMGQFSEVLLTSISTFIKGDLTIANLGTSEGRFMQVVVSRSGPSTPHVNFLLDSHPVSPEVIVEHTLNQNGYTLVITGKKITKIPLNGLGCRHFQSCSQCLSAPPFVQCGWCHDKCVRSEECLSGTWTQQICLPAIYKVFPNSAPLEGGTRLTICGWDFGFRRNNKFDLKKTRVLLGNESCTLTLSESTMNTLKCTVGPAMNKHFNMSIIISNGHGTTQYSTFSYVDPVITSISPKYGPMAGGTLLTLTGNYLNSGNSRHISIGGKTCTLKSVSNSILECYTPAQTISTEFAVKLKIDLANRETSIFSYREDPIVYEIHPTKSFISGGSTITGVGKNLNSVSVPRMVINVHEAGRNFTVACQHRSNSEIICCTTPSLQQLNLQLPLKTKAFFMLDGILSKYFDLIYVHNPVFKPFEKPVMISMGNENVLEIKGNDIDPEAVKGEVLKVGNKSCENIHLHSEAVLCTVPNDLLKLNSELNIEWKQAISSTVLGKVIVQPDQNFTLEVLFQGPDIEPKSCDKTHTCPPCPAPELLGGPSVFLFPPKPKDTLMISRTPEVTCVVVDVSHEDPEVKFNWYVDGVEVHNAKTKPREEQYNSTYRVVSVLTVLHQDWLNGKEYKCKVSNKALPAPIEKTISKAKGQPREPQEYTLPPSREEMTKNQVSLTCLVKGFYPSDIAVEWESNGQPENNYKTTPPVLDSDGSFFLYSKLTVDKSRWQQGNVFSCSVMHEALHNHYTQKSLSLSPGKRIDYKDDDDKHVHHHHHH
Chain of human hepatocyte growth factor (HGF) (P14210 32-728 limits assumed): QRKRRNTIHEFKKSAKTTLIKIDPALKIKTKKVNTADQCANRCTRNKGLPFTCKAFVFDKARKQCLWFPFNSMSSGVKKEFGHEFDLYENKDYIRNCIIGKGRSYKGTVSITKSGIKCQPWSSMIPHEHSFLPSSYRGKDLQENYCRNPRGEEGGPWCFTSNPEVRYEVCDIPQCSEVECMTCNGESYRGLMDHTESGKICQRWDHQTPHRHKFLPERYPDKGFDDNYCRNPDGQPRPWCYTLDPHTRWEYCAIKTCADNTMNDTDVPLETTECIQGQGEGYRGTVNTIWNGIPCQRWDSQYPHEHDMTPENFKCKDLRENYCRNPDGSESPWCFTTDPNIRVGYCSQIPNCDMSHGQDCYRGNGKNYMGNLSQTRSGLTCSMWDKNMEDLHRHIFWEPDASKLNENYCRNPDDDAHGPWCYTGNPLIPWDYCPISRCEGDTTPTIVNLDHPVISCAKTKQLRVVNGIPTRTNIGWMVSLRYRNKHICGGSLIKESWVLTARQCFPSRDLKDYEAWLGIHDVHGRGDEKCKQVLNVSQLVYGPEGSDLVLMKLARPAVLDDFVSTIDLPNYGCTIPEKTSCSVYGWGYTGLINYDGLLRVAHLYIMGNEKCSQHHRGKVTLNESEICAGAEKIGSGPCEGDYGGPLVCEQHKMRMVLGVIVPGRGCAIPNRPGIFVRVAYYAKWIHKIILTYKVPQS

Substance	% inhibition of HGF stimulated phospho-Met (ELISA, HCT116 cells), Ab 0.0032 µg/mL [1]	% inhibition of HGF stimulated phospho-Met (ELISA, HCT116 cells), Ab 0.016 µg/mL [1]	% inhibition of HGF stimulated phospho-Met (ELISA, HCT116 cells), Ab 0.08 µg/mL [1]	% inhibition of HGF stimulated phospho-Met (ELISA, HCT116 cells), Ab 0.4 µg/mL [1]	% inhibition of HGF stimulated phospho-Met (ELISA, HCT116 cells), Ab 2 µg/mL [1]	% inhibition of HGF stimulated phospho-Met (ELISA, HCT116 cells), Ab 10 µg/mL [1]	AVG CPM, 3H-thymidine incorporation in MKN45 cells, Ab 0.0 ng/mL (no antibody) [1]	AVG CPM, 3H-thymidine incorporation in MKN45 cells, Ab 0.1 ng/mL [1]	AVG CPM, 3H-thymidine incorporation in MKN45 cells, Ab 0.4 ng/mL [1]	AVG CPM, 3H-thymidine incorporation in MKN45 cells, Ab 2.6 ng/mL [1]	AVG CPM, 3H-thymidine incorporation in MKN45 cells, Ab 15.4 ng/mL [1]	AVG CPM, 3H-thymidine incorporation in MKN45 cells, Ab 92.6 ng/mL [1]	AVG CPM, 3H-thymidine incorporation in MKN45 cells, Ab 555.6 ng/mL [1]	AVG CPM, 3H-thymidine incorporation in MKN45 cells, Ab 3333.3 ng/mL [1]	AVG CPM, 3H-thymidine incorporation in MKN45 cells, Ab 20000.0 ng/mL [1]	Mean Fluorescence (c-Met left on the surface of MKN45 cells, FACS), Ab 5.00 ug/mL [1]	AVG A450 nm [2]	AVG A450 nm [3]	AVG A450 nm [4]	AVG A450 nm [5]	also measured
Murine IgG1 c-Met antibody 5D5	-6.07%	-3.5%	11.9%	42.5%	63.8%	64.1%	50300 CPM	51900 CPM	49600 CPM	55000 CPM	49800 CPM	39600 CPM	39500 CPM	38200 CPM	35100 CPM	92.9	–	–	–	–	3H-Thymidine Incorporation in Caki-1 Cells in the Absence of HGF (AVG CPM), antibody dose 0.1 ng/mL [1]: 14400 CPM; 3H-Thymidine Incorporation in Caki-1 Cells in the Absence of HGF (AVG CPM), antibody dose 0.4 ng/mL [1]: 12900 CPM; 3H-Thymidine Incorporation in Caki-1 Cells in the Absence of HGF (AVG CPM), antibody dose 2.6 ng/mL [1]: 12500 CPM; 3H-Thymidine Incorporation in Caki-1 Cells in the Absence of HGF (AVG CPM), antibody dose 15.4 ng/mL [1]: 11700 CPM; 3H-Thymidine Incorporation in Caki-1 Cells in the Absence of HGF (AVG CPM), antibody dose 92.6 ng/mL [1]: 15600 CPM; 3H-Thymidine Incorporation in Caki-1 Cells in the Absence of HGF (AVG CPM), antibody dose 555.6 ng/mL [1]: 20000 CPM; 3H-Thymidine Incorporation in Caki-1 Cells in the Absence of HGF (AVG CPM), antibody dose 3333.3 ng/mL [1]: 19000 CPM; 3H-Thymidine Incorporation in Caki-1 Cells in the Absence of HGF (AVG CPM), antibody dose 20000.0 ng/mL [1]: 19900 CPM; 3H-Thymidine Incorporation in Primary Human Hepatocytes in the Absence of HGF (average), dose 0.0032 ug/mL [1]: 822; 3H-Thymidine Incorporation in Primary Human Hepatocytes in the Absence of HGF (average), dose 0.016 ug/mL [1]: 1720; 3H-Thymidine Incorporation in Primary Human Hepatocytes in the Absence of HGF (average), dose 0.08 ug/mL [1]: 3320; 3H-Thymidine Incorporation in Primary Human Hepatocytes in the Absence of HGF (average), dose 0.4 ug/mL [1]: 3760; 3H-Thymidine Incorporation in Primary Human Hepatocytes in the Absence of HGF (average), dose 2 ug/mL [1]: 4910; 3H-Thymidine Incorporation in Primary Human Hepatocytes in the Absence of HGF (average), dose 10 ug/mL [1]: 4980; H441 Scratch Assay, Avg. %, antibody 10 ug/mL [1]: 244%; HepG2 Cell Invasiveness, Average Cell Number Per 2.5x Field, antibody 10.00 ug/mL (cells per 2.5x field) [1]: 85; Percent of DU145 Cells in Colonies (scatter assay), antibody 20 ug/mL [1]: 14.4%; Tube Formation in ECFC Cells, Total Tube Area (Avg.), antibody 10 ug/mL [1]: 147000; Tubular Morphogenesis Agonist activity (fold stimulation) in HepG2 cells, antibody 50 ug/ml (fold stimulation) [1]: 4.9; p-Met signal (pY1349 ELISA, A549 cells), Ab Conc. 5 (ng/mL as printed) [1]: 3.29
human hepatocyte growth factor (HGF) (from UniProt P14210 32-728) (ligand)	–	–	–	–	–	–	–	–	–	–	–	–	–	–	–	–	–	–	–	–	3H-Thymidine Incorporation in Primary Human Hepatocytes (ave), HGF 200 ng/mL [1]: 6290; H441 Scratch Assay, Avg. %, HGF 200 ng/mL [1]: 364%; HepG2 Cell Invasiveness, Average Cell Number Per 2.5x Field, HGF 50 ng/mL (cells per 2.5x field) [1]: 510; Percent of DU145 Cells in Colonies (scatter assay), HGF 20 ng/mL [1]: 8.15%; Staurosporine-Induced Apoptosis in Caki-1 Cells, Average A450 nm, HGF 0.02 ng/mL [1]: 0.97 A450 nm; Staurosporine-Induced Apoptosis in Caki-1 Cells, Average A450 nm, HGF 0.23 ng/mL [1]: 0.93 A450 nm; Staurosporine-Induced Apoptosis in Caki-1 Cells, Average A450 nm, HGF 2.25 ng/mL [1]: 0.73 A450 nm; Staurosporine-Induced Apoptosis in Caki-1 Cells, Average A450 nm, HGF 22.5 ng/mL [1]: 0.58 A450 nm; Staurosporine-Induced Apoptosis in Caki-1 Cells, Average A450 nm, HGF 225 ng/mL [1]: 0.45 A450 nm; Tube Formation in ECFC Cells, Total Tube Area (Avg.), HGF 100 ng/mL [1]: 212000; Tubular Morphogenesis Agonist activity (fold stimulation) in HepG2 cells, HGF 50 ng/ml (fold stimulation) [1]: 5.4
humanized IgG2 isotype control antibody	-10.2%	9.49%	-1.58%	9.31%	17.5%	6.24%	50400 CPM	44800 CPM	46500 CPM	48500 CPM	50500 CPM	47600 CPM	51700 CPM	49400 CPM	45100 CPM	130	2.52 A450 nm	2.7 A450 nm	2.53 A450 nm	2.43 A450 nm	AVG A450 nm [6]: 2.87 A450 nm; AVG A450 nm [7]: 2.5 A450 nm; AVG A450 nm [8]: 2.43 A450 nm; AVG A450 nm [9]: 2.43 A450 nm; AVG A450 nm [10]: 2.41 A450 nm; AVG A450 nm [11]: 2.5 A450 nm; AVG A450 nm [12]: 2.46 A450 nm
humanized IgG4 isotype control antibody	-14.4%	-7.96%	-21.7%	-16.1%	-6.62%	-1.47%	48700 CPM	53900 CPM	55300 CPM	54800 CPM	53800 CPM	54300 CPM	54200 CPM	54000 CPM	50600 CPM	135	2.44 A450 nm	2.88 A450 nm	2.44 A450 nm	2.61 A450 nm	p-Met signal (pY1349 ELISA, A549 cells), Ab 0.002 µg/mL [1]: 0.117; p-Met signal (pY1349 ELISA, A549 cells), Ab 0.005 µg/mL [1]: 0.074; p-Met signal (pY1349 ELISA, A549 cells), Ab 0.014 µg/mL [1]: 0.074; p-Met signal (pY1349 ELISA, A549 cells), Ab 0.041 µg/mL [1]: 0.268; p-Met signal (pY1349 ELISA, A549 cells), Ab 0.123 µg/mL [1]: 0.067; p-Met signal (pY1349 ELISA, A549 cells), Ab 0.370 µg/mL [1]: 0.082; p-Met signal (pY1349 ELISA, A549 cells), Ab 1.113 µg/mL [1]: 0.087; p-Met signal (pY1349 ELISA, A549 cells), Ab 3.333 µg/mL [1]: 0.068; p-Met signal (pY1349 ELISA, A549 cells), Ab 10 µg/mL [1]: 0.077; p-Met signal (pY1349 ELISA, A549 cells), Ab 30 µg/mL [1]: 0.061; AVG A450 nm [6]: 2.49 A450 nm; AVG A450 nm [7]: 2.67 A450 nm; AVG A450 nm [8]: 2.27 A450 nm; AVG A450 nm [9]: 3 A450 nm; AVG A450 nm [10]: 2.63 A450 nm; AVG A450 nm [11]: 2.49 A450 nm; AVG A450 nm [12]: 2.41 A450 nm
murine IgG isotype control antibody	-9.76%	-5.42%	-10.6%	13.4%	9.76%	5.46%	50300 CPM	47700 CPM	51500 CPM	55500 CPM	51300 CPM	52200 CPM	54700 CPM	53700 CPM	52400 CPM	136	–	–	–	–	–
